Measurements reported in patent US20160257760A1 (OXFORD BIOTHERAPEUTICS, published 2016).

Legend:
[1] = target: T1, LY75 (DEC-205) on COLO205 cells (human, UniProt O60449 28-1722); assay: competitive FACS on COLO205 cells
T1 construct: Endogenous LY75 on COLO205 human colorectal adenocarcinoma cells; also called Lymphocyte antigen 75
Experimental: Cells were washed and resuspended in FACS buffer (PBS+2% FBS), neutralized with growth media, and counted. Cells were plated at 50,000 cells per well in a V Bottom 96-well plate. Cells were washed once with FACS buffer (PBS (Fisher, catalog # SH30028-03)+2% FBS). […] Test wells that required single or multiple staining steps were left in FACS buffer as appropriate to ensure the final staining was completed simultaneously for all conditions tested. Two wells were left unstained in FACS buffer as controls.
After the incubation with blocking antibody, cells were washed twice in FACS buffer. […] The cells were washed as above and resuspended in FACS buffer plus 1 ug/ml mouse anti-maytansine antibody and incubated in ice for 45 minutes. The cells were washed as above and resuspended in FACS buffer containing 2 ug/ml goat anti-mouse kappa RPE. The cells were incubated on ice for 45 minutes then washed as above. The cells were resuspended in FACS buffer at 200 ul per well. Mean fluorescence intensity of each sample was determined using a Guava EasyCyte Plus HT Flow Cytometer (96 well plate formats) and the raw data was analyzed using the Guava Cytosoft.

SCYKVFHA = target: T2, SCYKVFHA; assay: peptide microarray, 1 µg/mL LY75_A1, anti-human IgG Alexa 647
T2 peptide: SCYKVFHA
Experimental: (§1) The chip comprised three panels such that the experiment was performed in triplicate. […] The binding assay was performed under the following conditions:—The microarray comprising the contiguous peptides in triplicate was washed with 1 mL of binding buffer at 4° C. for 20 min. […] The array was again washed with 0.5 mL of washing buffer at 4° C. for 30 min.

CYKVFHAE = target: T3, CYKVFHAE; assay: as above
T3 peptide: CYKVFHAE
Experimental: as §1

SLSCYKVF = target: T4, SLSCYKVF; assay: as above
T4 peptide: SLSCYKVF
Experimental: as §1

LSCYKVFH = target: T5, LSCYKVFH; assay: as above
T5 peptide: LSCYKVFH
Experimental: as §1

DDHFTYSR = target: T6, DDHFTYSR; assay: as above
T6 peptide: DDHFTYSR
Experimental: as §1

DHFTYSRY = target: T7, DHFTYSRY; assay: as above
T7 peptide: DHFTYSRY
Experimental: as §1

HFTYSRYP = target: T8, HFTYSRYP; assay: as above
T8 peptide: HFTYSRYP
Experimental: as §1

FTYSRYPW = target: T9, FTYSRYPW; assay: as above
T9 peptide: FTYSRYPW
Experimental: as §1

YSRYPWHR = target: T10, YSRYPWHR; assay: as above
T10 peptide: YSRYPWHR
Experimental: as §1

SRYPWHRF = target: T11, SRYPWHRF; assay: as above
T11 peptide: SRYPWHRF
Experimental: as §1

RYPWHRFP = target: T12, RYPWHRFP; assay: as above
T12 peptide: RYPWHRFP
Experimental: as §1

YPWHRFPV = target: T13, YPWHRFPV; assay: as above
T13 peptide: YPWHRFPV
Experimental: as §1

WHRFPVTF = target: T14, WHRFPVTF; assay: as above
T14 peptide: WHRFPVTF
Experimental: as §1

HRFPVTFG = target: T15, HRFPVTFG; assay: as above
T15 peptide: HRFPVTFG
Experimental: as §1

YLNNLYKI = target: T16, YLNNLYKI; assay: as above
T16 peptide: YLNNLYKI
Experimental: as §1

LNNLYKII = target: T17, LNNLYKII; assay: as above
T17 peptide: LNNLYKII
Experimental: as §1

NNLYKIIP = target: T18, NNLYKIIP; assay: as above
T18 peptide: NNLYKIIP
Experimental: as §1

LYKIIPKT = target: T19, LYKIIPKT; assay: as above
T19 peptide: LYKIIPKT
Experimental: as §1

YKIIPKTL = target: T20, YKIIPKTL; assay: as above
T20 peptide: YKIIPKTL
Experimental: as §1

IIPKTLTW = target: T21, IIPKTLTW; assay: as above
T21 peptide: IIPKTLTW
Experimental: as §1

IPKTLTWH = target: T22, IPKTLTWH; assay: as above
T22 peptide: IPKTLTWH
Experimental: as §1

PKTLTWHS = target: T23, PKTLTWHS; assay: as above
T23 peptide: PKTLTWHS
Experimental: as §1

NGSRWIQY = target: T24, NGSRWIQY; assay: as above
T24 peptide: NGSRWIQY
Experimental: as §1

GSRWIQYK = target: T25, GSRWIQYK; assay: as above
T25 peptide: GSRWIQYK
Experimental: as §1

SRWIQYKG = target: T26, SRWIQYKG; assay: as above
T26 peptide: SRWIQYKG
Experimental: as §1

RWIQYKGH = target: T27, RWIQYKGH; assay: as above
T27 peptide: RWIQYKGH
Experimental: as §1

WIQYKGHC = target: T28, WIQYKGHC; assay: as above
T28 peptide: WIQYKGHC
Experimental: as §1

QYKGHCYK = target: T29, QYKGHCYK; assay: as above
T29 peptide: QYKGHCYK
Experimental: as §1

YKGHCYKS = target: T30, YKGHCYKS; assay: as above
T30 peptide: YKGHCYKS
Experimental: as §1

HCYKSDQA = target: T31, HCYKSDQA; assay: as above
T31 peptide: HCYKSDQA
Experimental: as §1

CYKSDQAL = target: T32, CYKSDQAL; assay: as above
T32 peptide: CYKSDQAL
Experimental: as §1

YKSDQALH = target: T33, YKSDQALH; assay: as above
T33 peptide: YKSDQALH
Experimental: as §1

KSDQALHS = target: T34, KSDQALHS; assay: as above
T34 peptide: KSDQALHS
Experimental: as §1

T1 sequence (O60449 28-1722 limits assumed): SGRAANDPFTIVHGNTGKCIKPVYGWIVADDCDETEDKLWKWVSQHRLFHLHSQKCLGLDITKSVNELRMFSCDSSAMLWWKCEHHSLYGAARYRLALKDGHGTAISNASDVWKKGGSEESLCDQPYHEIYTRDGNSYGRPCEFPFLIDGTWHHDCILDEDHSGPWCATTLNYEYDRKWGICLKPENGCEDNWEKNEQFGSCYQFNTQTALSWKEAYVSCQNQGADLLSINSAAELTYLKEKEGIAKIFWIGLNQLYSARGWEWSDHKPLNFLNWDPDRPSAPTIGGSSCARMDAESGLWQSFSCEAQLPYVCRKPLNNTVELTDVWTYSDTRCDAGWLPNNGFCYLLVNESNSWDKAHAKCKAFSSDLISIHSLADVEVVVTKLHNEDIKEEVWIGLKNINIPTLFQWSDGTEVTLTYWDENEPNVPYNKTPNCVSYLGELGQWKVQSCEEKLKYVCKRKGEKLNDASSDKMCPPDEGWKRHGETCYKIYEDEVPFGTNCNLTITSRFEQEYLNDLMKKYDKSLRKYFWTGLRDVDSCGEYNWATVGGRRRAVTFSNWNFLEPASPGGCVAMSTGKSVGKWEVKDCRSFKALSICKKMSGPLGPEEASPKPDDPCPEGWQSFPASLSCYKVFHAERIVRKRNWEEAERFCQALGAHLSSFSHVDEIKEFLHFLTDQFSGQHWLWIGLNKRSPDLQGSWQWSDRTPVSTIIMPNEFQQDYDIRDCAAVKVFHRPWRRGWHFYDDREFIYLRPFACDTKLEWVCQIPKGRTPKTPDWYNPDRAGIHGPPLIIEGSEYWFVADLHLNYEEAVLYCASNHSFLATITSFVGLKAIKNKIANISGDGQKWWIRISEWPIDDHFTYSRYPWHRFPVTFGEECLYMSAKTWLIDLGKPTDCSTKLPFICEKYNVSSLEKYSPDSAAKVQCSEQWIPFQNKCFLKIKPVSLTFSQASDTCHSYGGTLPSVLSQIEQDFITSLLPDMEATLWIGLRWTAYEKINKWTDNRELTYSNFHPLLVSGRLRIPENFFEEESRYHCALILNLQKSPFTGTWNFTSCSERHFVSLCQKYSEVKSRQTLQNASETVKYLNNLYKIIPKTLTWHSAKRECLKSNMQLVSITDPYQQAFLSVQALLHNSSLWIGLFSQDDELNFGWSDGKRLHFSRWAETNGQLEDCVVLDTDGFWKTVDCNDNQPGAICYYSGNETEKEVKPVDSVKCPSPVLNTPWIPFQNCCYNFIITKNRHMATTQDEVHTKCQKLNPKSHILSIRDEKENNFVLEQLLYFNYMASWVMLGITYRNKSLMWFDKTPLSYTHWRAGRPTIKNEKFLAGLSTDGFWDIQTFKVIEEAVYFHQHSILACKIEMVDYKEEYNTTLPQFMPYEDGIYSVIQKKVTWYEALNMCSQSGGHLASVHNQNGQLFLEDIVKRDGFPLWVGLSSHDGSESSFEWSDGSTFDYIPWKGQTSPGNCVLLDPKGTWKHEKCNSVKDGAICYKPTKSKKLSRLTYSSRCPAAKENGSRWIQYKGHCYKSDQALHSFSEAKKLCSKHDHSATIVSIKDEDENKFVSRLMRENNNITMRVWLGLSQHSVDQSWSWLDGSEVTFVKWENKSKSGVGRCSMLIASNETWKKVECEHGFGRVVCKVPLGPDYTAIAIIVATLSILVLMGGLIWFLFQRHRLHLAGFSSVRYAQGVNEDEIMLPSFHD

B1: LY75_A1 monoclonal antibody (antibody, V domains shown)
VH: EVQLVESGGGLVKPGGSLRLSCAASGFTYSNAWMSWVRQAPGKGLEWVGRIKSKTDGGTTDYAAPVQGRFTISRDDSKNTLYLQMNSLKTEDTAVYYCTIFGVVSFDYWGQGTLVTVSS
VL: DVQMTQSPSSLSASVGDRVTITCRASQSISDYLSWYQQRPGKAPNLLIYAASNLKTGVPSRFSGSGSGTDFTLTISTLQPEDFATYYCQQSYRSPWTFGQGTKVEIKR
notes: also called LY75A1 antibody; LY75_A1 antibody
binding result [1]: binds
binding result (SCYKVFHA): binds
binding result (CYKVFHAE): no binding (tested: 1 µg/mL)
binding result (SLSCYKVF): binds
binding result (LSCYKVFH): binds
binding result (DDHFTYSR): binds
binding result (DHFTYSRY): binds
binding result (HFTYSRYP): binds
binding result (FTYSRYPW): no binding (tested: 1 µg/mL)
binding result (YSRYPWHR): binds
binding result (SRYPWHRF): binds
binding result (RYPWHRFP): binds
binding result (YPWHRFPV): binds
binding result (WHRFPVTF): binds
binding result (HRFPVTFG): binds
binding result (YLNNLYKI): binds
binding result (LNNLYKII): binds
binding result (NNLYKIIP): no binding (tested: 1 µg/mL)
binding result (LYKIIPKT): no binding (tested: 1 µg/mL)
binding result (YKIIPKTL): no binding (tested: 1 µg/mL)
binding result (IIPKTLTW): no binding (tested: 1 µg/mL)
binding result (IPKTLTWH): no binding (tested: 1 µg/mL)
binding result (PKTLTWHS): no binding (tested: 1 µg/mL)
binding result (NGSRWIQY): binds
binding result (GSRWIQYK): binds
binding result (SRWIQYKG): binds
binding result (RWIQYKGH): binds
binding result (WIQYKGHC): no binding (tested: 1 µg/mL)
binding result (QYKGHCYK): binds
binding result (YKGHCYKS): binds
binding result (HCYKSDQA): no binding (tested: 1 µg/mL)
binding result (CYKSDQAL): no binding (tested: 1 µg/mL)
binding result (YKSDQALH): binds
binding result (KSDQALHS): no binding (tested: 1 µg/mL)
